Source: US20200199576

Legend:
β-catenin, P35222 = biological target: T1, β-catenin, P35222
T1 chain: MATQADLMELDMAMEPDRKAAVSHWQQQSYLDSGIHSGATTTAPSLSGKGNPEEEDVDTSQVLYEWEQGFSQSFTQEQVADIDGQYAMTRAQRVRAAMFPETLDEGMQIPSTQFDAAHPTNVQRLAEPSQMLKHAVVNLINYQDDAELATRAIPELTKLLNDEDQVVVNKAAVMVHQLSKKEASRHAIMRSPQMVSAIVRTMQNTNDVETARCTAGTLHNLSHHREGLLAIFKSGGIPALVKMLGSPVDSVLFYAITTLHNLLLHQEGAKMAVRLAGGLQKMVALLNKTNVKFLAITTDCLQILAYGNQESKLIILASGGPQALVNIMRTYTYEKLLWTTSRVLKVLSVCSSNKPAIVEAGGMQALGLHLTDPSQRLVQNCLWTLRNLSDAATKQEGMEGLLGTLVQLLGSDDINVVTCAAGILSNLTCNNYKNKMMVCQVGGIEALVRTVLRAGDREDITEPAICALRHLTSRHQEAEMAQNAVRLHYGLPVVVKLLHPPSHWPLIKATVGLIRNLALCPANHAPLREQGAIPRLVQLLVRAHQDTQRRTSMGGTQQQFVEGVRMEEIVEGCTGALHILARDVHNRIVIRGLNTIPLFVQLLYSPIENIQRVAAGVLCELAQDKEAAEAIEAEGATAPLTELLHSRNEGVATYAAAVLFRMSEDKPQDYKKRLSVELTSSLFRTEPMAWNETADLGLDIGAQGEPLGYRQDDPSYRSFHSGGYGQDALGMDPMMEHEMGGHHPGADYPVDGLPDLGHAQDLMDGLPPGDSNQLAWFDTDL

CDK4, P11802 = biological target: T2, CDK4, P11802
T2 chain: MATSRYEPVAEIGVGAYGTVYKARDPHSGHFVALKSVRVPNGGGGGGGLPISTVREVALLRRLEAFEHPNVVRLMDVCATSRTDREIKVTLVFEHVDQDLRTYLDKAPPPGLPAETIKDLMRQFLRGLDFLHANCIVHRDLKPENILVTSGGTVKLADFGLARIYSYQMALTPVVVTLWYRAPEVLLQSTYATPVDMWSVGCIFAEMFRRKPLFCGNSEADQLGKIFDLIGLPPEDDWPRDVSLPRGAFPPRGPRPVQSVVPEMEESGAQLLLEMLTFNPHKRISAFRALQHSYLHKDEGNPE

[1] = biological target: T3, UV excision repair protein HHR23A (RAD23A), P54725
T3 chain: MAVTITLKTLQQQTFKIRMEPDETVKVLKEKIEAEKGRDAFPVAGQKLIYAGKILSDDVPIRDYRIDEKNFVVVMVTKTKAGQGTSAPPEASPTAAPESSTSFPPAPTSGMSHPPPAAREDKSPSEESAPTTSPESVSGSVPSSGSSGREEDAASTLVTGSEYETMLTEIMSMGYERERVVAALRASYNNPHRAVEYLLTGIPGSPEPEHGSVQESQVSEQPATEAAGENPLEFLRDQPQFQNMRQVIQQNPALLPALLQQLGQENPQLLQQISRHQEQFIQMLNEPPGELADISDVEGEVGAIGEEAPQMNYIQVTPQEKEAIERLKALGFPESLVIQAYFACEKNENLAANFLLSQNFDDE

[2] = biological target: protein Arg methyltransferase 5 (PRMT5), O14744
protein Arg methyltransferase 5 (PRMT5), O14744, sequence (O14744 whole entry): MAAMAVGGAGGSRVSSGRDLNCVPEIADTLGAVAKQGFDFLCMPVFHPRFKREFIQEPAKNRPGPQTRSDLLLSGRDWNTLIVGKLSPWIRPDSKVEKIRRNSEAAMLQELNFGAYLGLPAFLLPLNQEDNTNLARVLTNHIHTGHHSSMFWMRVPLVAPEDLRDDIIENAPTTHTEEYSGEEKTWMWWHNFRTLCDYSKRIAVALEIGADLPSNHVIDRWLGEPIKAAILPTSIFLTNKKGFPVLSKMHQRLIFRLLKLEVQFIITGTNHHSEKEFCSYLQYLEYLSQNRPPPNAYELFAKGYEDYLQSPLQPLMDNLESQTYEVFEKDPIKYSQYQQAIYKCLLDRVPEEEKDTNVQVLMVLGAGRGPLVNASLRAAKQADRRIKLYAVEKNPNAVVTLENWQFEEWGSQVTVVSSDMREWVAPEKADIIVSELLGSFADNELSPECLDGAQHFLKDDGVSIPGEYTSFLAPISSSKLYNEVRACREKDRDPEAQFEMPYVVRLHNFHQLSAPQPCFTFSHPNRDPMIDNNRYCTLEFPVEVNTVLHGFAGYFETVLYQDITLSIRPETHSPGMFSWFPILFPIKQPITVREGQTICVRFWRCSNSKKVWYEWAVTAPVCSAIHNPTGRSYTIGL

[3] = biological target: T4, FAS-associated factor UbxD8, Q96CS3
T4 chain: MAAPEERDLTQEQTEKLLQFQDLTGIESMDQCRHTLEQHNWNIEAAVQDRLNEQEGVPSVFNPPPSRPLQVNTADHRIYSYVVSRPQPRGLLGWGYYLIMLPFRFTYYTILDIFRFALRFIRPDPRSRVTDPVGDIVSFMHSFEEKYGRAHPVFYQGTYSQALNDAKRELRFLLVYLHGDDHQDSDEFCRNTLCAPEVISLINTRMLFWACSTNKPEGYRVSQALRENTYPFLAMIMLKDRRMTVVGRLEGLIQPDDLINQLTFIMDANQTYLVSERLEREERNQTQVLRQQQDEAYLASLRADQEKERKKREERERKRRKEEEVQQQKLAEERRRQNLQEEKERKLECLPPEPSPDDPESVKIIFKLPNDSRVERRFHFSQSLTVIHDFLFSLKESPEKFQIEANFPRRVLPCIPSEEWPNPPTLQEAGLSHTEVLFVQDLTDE

p53, P04637, sequence (P04637 whole entry, looked up): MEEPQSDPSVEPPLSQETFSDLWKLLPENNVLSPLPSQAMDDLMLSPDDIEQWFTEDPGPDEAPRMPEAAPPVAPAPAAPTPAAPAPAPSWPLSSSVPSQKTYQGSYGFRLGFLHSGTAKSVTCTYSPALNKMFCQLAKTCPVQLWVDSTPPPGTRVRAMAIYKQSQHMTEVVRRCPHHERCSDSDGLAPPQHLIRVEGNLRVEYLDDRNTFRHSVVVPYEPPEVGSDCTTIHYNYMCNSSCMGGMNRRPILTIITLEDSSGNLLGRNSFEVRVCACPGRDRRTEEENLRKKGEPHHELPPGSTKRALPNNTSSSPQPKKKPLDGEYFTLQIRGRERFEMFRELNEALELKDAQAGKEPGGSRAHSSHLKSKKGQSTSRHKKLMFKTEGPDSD
MAPK1, P28482, sequence (P28482 whole entry): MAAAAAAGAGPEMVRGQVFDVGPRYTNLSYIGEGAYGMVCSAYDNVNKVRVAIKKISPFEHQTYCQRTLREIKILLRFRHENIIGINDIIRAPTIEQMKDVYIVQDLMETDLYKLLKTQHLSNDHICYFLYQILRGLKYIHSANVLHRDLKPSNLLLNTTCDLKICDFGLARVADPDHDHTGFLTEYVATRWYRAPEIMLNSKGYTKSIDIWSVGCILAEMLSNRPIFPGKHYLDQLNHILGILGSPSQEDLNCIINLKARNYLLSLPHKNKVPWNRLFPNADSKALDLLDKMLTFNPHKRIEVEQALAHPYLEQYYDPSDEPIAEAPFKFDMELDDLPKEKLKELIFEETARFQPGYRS
CDK1, P06493, sequence (P06493 whole entry, looked up): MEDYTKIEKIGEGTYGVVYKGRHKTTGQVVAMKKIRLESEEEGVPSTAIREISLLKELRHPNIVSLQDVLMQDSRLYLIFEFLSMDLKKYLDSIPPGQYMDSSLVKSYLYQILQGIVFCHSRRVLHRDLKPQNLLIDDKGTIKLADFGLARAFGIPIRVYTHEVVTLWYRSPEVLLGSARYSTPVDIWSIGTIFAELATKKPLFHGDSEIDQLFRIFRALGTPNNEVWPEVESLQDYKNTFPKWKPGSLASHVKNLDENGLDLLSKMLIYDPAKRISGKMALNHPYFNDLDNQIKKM

B1: wt E6AP (full-length) (protein)
chain: MKRAAAKHLIERYYHQLTEGCGNEACTNEFCASCPTFLRMDNNAAAIKALELYKINAKLCDPHPSKKGASSAYLENSKGAPNNSCSEIKMNKKGARIDFKDVTYLTEEKVYEILELCREREDYSPLIRVIGRVFSSAEALVQSFRKVKQHTKEELKSLQAKDEDKDEDEKEKAACSAAAMEEDSEASSSRIGDSSQGDNNLQKLGPDDVSVDIDAIRRVYTRLLSNEKIETAFLNALVYLSPNVECDLTYHNVYSRDPNYLNLFIIVMENRNLHSPEYLEMALPLFCKAMSKLPLAAQGKLIRLWSKYNADQIRRMMETFQQLITYKVISNEFNSRNLVNDDDAIVAASKCLKMVYYANVVGGEVDTNHNEEDDEEPIPESSELTLQELLGEERRNKKGPRVDPLETELGVKTLDCRKPLIPFEEFINEPLNEVLEMDKDYTFFKVETENKFSFMTCPFILNAVTKNLGLYYDNRIRMYSERRITVLYSLVQGQQLNPYLRLKVRRDHIIDDALVRLEMIAMENPADLKKQLYVEFEGEQGVDEGGVSKEFFQLVVEEIFNPDIGMFTYDESTKLFWFNPSSFETEGQFTLIGIVLGLAIYNNCILDVHFPMVVYRKLMGKKGTFRDLGDSHPVLYQSLKDLLEYEGNVEDDMMITFQISQTDLFGNPMMYDLKENGDKIPITNENRKEFVNLYSDYILNKSVEKQFKAFRRGFHMVTNESPLKYLFRPEEIELLICGSRNLDFQALEETTEYDGGYTRDSVLIREFWEIVHSFTDEQKRLFLQFTTGTDRAPVGGLGKLKMIIAKNGPDTERLPTSHTCFNVLLLPEYSSKEKLKERLLKAITYAKGFGML
B1 was tested, and the “in vitro substrate ubiquitination with wt UB through Uba1-UbcH7-E6AP, Western blot” value (from here on “in vitro substrate ubiquitination”) (CDK1, P06493) was “CDK1, CDK4 and β-catenin were strongly ubiquitinated by E6AP with the formation of high molecular weight bands”, the “in vitro substrate ubiquitination” value (β-catenin, P35222) was “CDK1, CDK4 and β-catenin were strongly ubiquitinated by E6AP with the formation of high molecular weight bands” and the “in vitro substrate ubiquitination” value (CDK4, P11802) was “CDK1, CDK4 and β-catenin were strongly ubiquitinated by E6AP with the formation of high molecular weight bands”. For the same protein, the “in vitro substrate ubiquitination” value [1] was “E6AP-catalyzed ubiquitination of HHR23A, a previously identified E6AP substrate, was confirmed”, the “p53 ubiquitination in the presence of E6, Western blot” value (p53, P04637) was “p53 can be efficiently ubiquitinated by wt UB through the wt Uba1-UbcH7-E6AP cascade in the presence of E6” and the “in vitro substrate ubiquitination” value [2] was “MAPK1, PRMTS, and UbxD8 mainly generated species with one or two conjugated UBs”. For the same protein, the “in vitro substrate ubiquitination” value [3] was “MAPK1, PRMTS, and UbxD8 mainly generated species with one or two conjugated UBs”, the “in vitro substrate ubiquitination” value (MAPK1, P28482) was “MAPK1, PRMTS, and UbxD8 mainly generated species with one or two conjugated UBs” and the “full-length E6AP auto-ubiquitination with wt UB, Western blot” value (wt UbcH7 (human E2)) was “wt E6AP can be auto-ubiquitinated by the wt Uba1-UbcH7 pair”.
